Source: patent US20230183339A1

Target: FcRn
Experiment: BIAcore at pH 6.0

Kd [µM]	Substance
1.64	wild-type irrelevant IgG1 (antibody)
3.64	wild-type irrelevant IgG4 (antibody)
